We go through seven molecules from patent US20120316071A1 (published 2012).

In assay [1] the target is T1, Recombinant Human DLL4 (human, UniProt Q9NR61 27-524).
T1 construct: Bought recombinant human DLL4 (R&D Systems Cat#1506-D4/CF); That entry includes the signal peptide (amino acids 1-25), the transmembrane region and the cytoplasmic domain; also called delta-like protein 4; Delta-like ligand 4
The experiment in a line: ECL (MSD) multispot binding assay, DLL4 spotted on plate, purified Fab in solution; signal over blank.

Assay [2] has as its target T1, Recombinant Human DLL4. The experiment in a line: ELISA, DLL4 coated on plate, Fab in solution, absorbance at 450 nm; signal minus noise.
The target of assay [3] is T2, Recombinant Human DLL4 (delta-like protein 4) (human, UniProt Q9NR61 27-524).
T2 construct: also called rHuman DLL4; Delta-like 4
In words: ECL (MSD) binding assay, Fab on immobilized DLL4.

For assay [4], the target named is T2, Recombinant Human DLL4 (delta-like …). The experiment in a line: ELISA, Fab on plate-coated DLL4.
The target of assay [5] is T3, Recombinant Human DLL4 (delta-like protein 4) (human, UniProt Q9NR61 27-524).
T3 construct: Bought recombinant human DLL4 (R&D Systems Cat#1506-D4/CF); also called rHuman DLL4; Delta-like 4
In words: ELISA, DLL4 coated on plate, Fab at 25 nM (first 25 nM row).

For assay [6], the target named is T3, Recombinant Human DLL4 (delta-like …). In words: ELISA, DLL4 coated on plate, Fab at 75 nM. For orientation: In an ELISA, binding on a coated surface is turned into a signal by an enzyme label.
Assay [7] shares this target. The experiment in a line: ELISA, DLL4 coated on plate, Fab at 25 nM (second 25 nM row).
For assay [8] the target is unchanged. The experiment in a line: ELISA, DLL4 coated on plate, Fab at 200 nM.
Assay [9] has the same target. The experiment in a line: ELISA, DLL4 coated on plate, Fab at 400 nM.
For assay [10] the target is unchanged. The experiment in a line: ELISA, DLL4 coated on plate, Fab at 0 nM (no-Fab background, first 0 row).
For assay [11] the target is unchanged. The experiment in a line: ELISA, DLL4 coated on plate, Fab at 100 nM.
Assay [12] has the same target. The experiment in a line: ELISA, DLL4 coated on plate, Fab at 0 nM (no-Fab background, second 0 row).
For assay [13] the target is unchanged. The experiment in a line: ELISA, DLL4 coated on plate, Fab at 0 nM (no-Fab background).
For assay [14] the target is unchanged. The experiment in a line: ELISA, DLL4 coated on plate, Fab at 50 nM.
Assay [15] has the same target. The experiment in a line: ELISA, DLL4 coated on plate, Fab at 50 nM. The source holds these as a separate data set.
Assay [16] has the same target. In words: ELISA, DLL4 coated on plate, Fab at 100 nM. The source holds these as a separate data set.

B1: Fab VH5-51_IGHD5-18*01>3_IGHJ4*01 G100K/G104T F29A & V3-4_IGLJ1*01 (Fab, V domains shown)
VH: EVQLVQSGAEVKKPGESLKISCKGSGYSATSYWIGWVRQMPGKGLEWMGIIYPGDSDTRYSPSFQGQVTISADKSISTAYLQWSSLKASDTAMYYCARRKYSYTYDYFDYWGQGTLVTVSS
VL: QTVVTQEPSFSVSPGGTVTLTCGLSSGSVSTSYYPSWYQQTPGQAPRTLIYSTNTRSSGVPDRFSGSILGNKAALTITGAQADDESDYYCVLYMGSGISYVFGTGTKVTVL
notes: Fab expressed in E. coli with CH1 (plasmid A, His6 and Flag tags) and lambda CL (plasmid E); also called KT F29A
As to B1, in assay [1], the “ECL Signal/Blank” value is 67.9. Moreover, the “ELISA (Signal-Noise)” value in assay [2] was 0.02.

B2: Fab VH5-51_IGHD5-18*01>3_IGHJ4*01 G100K/G104T G35T & V3-4_IGLJ1*01 (Fab, V domains shown)
VH: EVQLVQSGAEVKKPGESLKISCKGSGYSFTSYWITWVRQMPGKGLEWMGIIYPGDSDTRYSPSFQGQVTISADKSISTAYLQWSSLKASDTAMYYCARRKYSYTYDYFDYWGQGTLVTVSS
VL: QTVVTQEPSFSVSPGGTVTLTCGLSSGSVSTSYYPSWYQQTPGQAPRTLIYSTNTRSSGVPDRFSGSILGNKAALTITGAQADDESDYYCVLYMGSGISYVFGTGTKVTVL
notes: Fab from E. coli: VH-CH1 from Plasmid A with His6 and Flag tags, VL with lambda CL from Plasmid E; also called KT G35T
With B2, in [3], the “ECL signal” value was determined as 14500. In assay [4], the “ELISA (Signal-Noise)” value worked out at 0.07.

B3: Fab VH5-51_IGHD5-18*01>3_IGHJ4*01 G100K/G104T T30A & V3-4_IGLJ1*01 (Fab, V domains shown)
VH: EVQLVQSGAEVKKPGESLKISCKGSGYSFASYWIGWVRQMPGKGLEWMGIIYPGDSDTRYSPSFQGQVTISADKSISTAYLQWSSLKASDTAMYYCARRKYSYTYDYFDYWGQGTLVTVSS
VL: QTVVTQEPSFSVSPGGTVTLTCGLSSGSVSTSYYPSWYQQTPGQAPRTLIYSTNTRSSGVPDRFSGSILGNKAALTITGAQADDESDYYCVLYMGSGISYVFGTGTKVTVL
notes: Fab expressed in E. coli with CH1 (plasmid A, His6 and Flag tags) and lambda CL (plasmid E); also called KT T30A
For the molecule B3, the “ECL Signal/Blank” value in assay [1] is 69.4. The “ELISA (Signal-Noise)” value in [2] was found to be 0.

B4: Fab VH5-51_IGHD5-18*01>3_IGHJ4*01 G100K/G104T G24A & V3-4_IGLJ1*01 (Fab, V domains shown)
VH: EVQLVQSGAEVKKPGESLKISCKASGYSFTSYWIGWVRQMPGKGLEWMGIIYPGDSDTRYSPSFQGQVTISADKSISTAYLQWSSLKASDTAMYYCARRKYSYTYDYFDYWGQGTLVTVSS
VL: QTVVTQEPSFSVSPGGTVTLTCGLSSGSVSTSYYPSWYQQTPGQAPRTLIYSTNTRSSGVPDRFSGSILGNKAALTITGAQADDESDYYCVLYMGSGISYVFGTGTKVTVL
notes: Fab expressed in E. coli with CH1 (plasmid A, His6 and Flag tags) and lambda CL (plasmid E); also called KT G24A
Regarding B4, in [1], the “ECL Signal/Blank” value turned out to be 122. In addition, the “ELISA (Signal-Noise)” value in assay [2] amounted to 0.02.

B5: Fab VH5-51_IGHD5-18*01>3_IGHJ4*01 G100K/G104T G35A & V3-4_IGLJ1*01 (Fab, V domains shown)
VH: EVQLVQSGAEVKKPGESLKISCKGSGYSFTSYWIAWVRQMPGKGLEWMGIIYPGDSDTRYSPSFQGQVTISADKSISTAYLQWSSLKASDTAMYYCARRKYSYTYDYFDYWGQGTLVTVSS
VL: QTVVTQEPSFSVSPGGTVTLTCGLSSGSVSTSYYPSWYQQTPGQAPRTLIYSTNTRSSGVPDRFSGSILGNKAALTITGAQADDESDYYCVLYMGSGISYVFGTGTKVTVL
notes: Fab expressed in E. coli with CH1 (plasmid A, His6 and Flag tags) and lambda CL (plasmid E); also called KT G35A
On to B5, for which the “ECL Signal/Blank” value in [1] turned out to be 180. For the same molecule, in assay [2], the “ELISA (Signal-Noise)” value was found to be 0.02.

B6: Fab VH5-51_IGHD5-18*01>3_IGHJ4*01 G100K/G104T S28A & V3-4_IGLJ1*01 (Fab, V domains shown)
VH: EVQLVQSGAEVKKPGESLKISCKGSGYAFTSYWIGWVRQMPGKGLEWMGIIYPGDSDTRYSPSFQGQVTISADKSISTAYLQWSSLKASDTAMYYCARRKYSYTYDYFDYWGQGTLVTVSS
VL: QTVVTQEPSFSVSPGGTVTLTCGLSSGSVSTSYYPSWYQQTPGQAPRTLIYSTNTRSSGVPDRFSGSILGNKAALTITGAQADDESDYYCVLYMGSGISYVFGTGTKVTVL
notes: Fab expressed in E. coli with CH1 (plasmid A, His6 and Flag tags) and lambda CL (plasmid E); also called KT S28A
Turning to B6, the “ECL Signal/Blank” value in [1] was found to be 112. Moreover, in assay [2], the “ELISA (Signal-Noise)” value was found to be 0.01.

B7: Fab VH1-46_IGHD6-6*01_IGHJ1*01 S102A/S103P/S104F/H111F & L6_IGKJ1*01 (Fab, V domains shown)
VH: QVQLVQSGAEVKKPGASVKVSCKASGYTFTSYYMHWVRQAPGQGLEWMGIINPSGGSTSYAQKFQGRVTMTRDTSTSTVYMELSSLRSEDTAVYYCAREEYAPFSAEYFQFWGQGTLVTVSS
VL: not shown
notes: Tested as a Fab made in E. coli; also called H:APFF & L:wt; APFF
As to B7, the ELISA signal in assay [5] came out at 0.02; in assay [6], 0.072; in assay [7], 0.03; in assay [8], 0.1; in [9], 0.13; in assay [10] it was 0. Also, the ELISA signal in assay [11] was found to be 0.07; in assay [12], 0; in [13], 0.006; in [14], 0.06; in [15], 0.06; in assay [16], 0.072.
